The supplement of paper PMC10567573

B1: TRAF3IP2 (parent)
chain: FMEKRNQWLVSQLSAASPDTGHDS
B2: FAM46C (parent)
chain: VRSRLEEAGIKVHDVRLNGSAAGH
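Also: lentivirally expressed fusions sorted by FACS into six bins by GFP to DsRed ratio, PSI derived from sequencing read proportions per bin multiplied by bin number.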

Variants of: B1
Experiment: protein stability index of a GFP-peptide fusion (GPS, HEK-293T) (PSI 1-6); higher = more stable
Conditions: c terminus: a fixed tail appended
In the case of KMEKRNQWLVSQLSAASPDTGHDS, the protein stability index is reported as 3.71. In the case of NMEKRNQWLVSQLSAASPDTGHDS, the protein stability index is reported as 4.36. Variant PMEKRNQWLVSQLSAASPDTGHDS has a protein stability index of 3.95. In the case of HMEKRNQWLVSQLSAASPDTGHDS, the protein stability index is reported as 4.84. MMEKRNQWLVSQLSAASPDTGHDS showed a protein stability index of 3.56. For DMEKRNQWLVSQLSAASPDTGHDS, the protein stability index was 5.05. With GMEKRNQWLVSQLSAASPDTGHDS the protein stability index was 4.26. Variant IMEKRNQWLVSQLSAASPDTGHDS has a protein stability index of 3.72. LMEKRNQWLVSQLSAASPDTGHDS showed a protein stability index of 3.88. EMEKRNQWLVSQLSAASPDTGHDS gave a protein stability index of 4.77. AMEKRNQWLVSQLSAASPDTGHDS gave a protein stability index of 4.91. For CMEKRNQWLVSQLSAASPDTGHDS, the protein stability index was 3.98.

Variants of: B2
Experiment: as above
Conditions: c terminus: a fixed tail appended
For VRSRLEEAGIKVHDVRLNGSAMGH, the protein stability index was 2.66. VRSRLEEAGIKVHDVRLNGSAVGH gave a protein stability index of 3.25. Work on VRSRLEEAGIKVHDVRLNGSASGH yielded a protein stability index of 2.17. For VRSRLEEAGIKVHDVRLNGSARGH, the protein stability index was 2.17. For VRSRLEEAGIKVHDVRLNGSAGGH, the protein stability index was 2.86. In the case of VRSRLEEAGIKVHDVRLNGSANGH, the protein stability index is reported as 2.25. For VRSRLEEAGIKVHDVRLNGSAPGH, the protein stability index was 2.37. With VRSRLEEAGIKVHDVRLNGSAYGH the protein stability index was 1.94. VRSRLEEAGIKVHDVRLNGSAWGH gave a protein stability index of 2.68. VRSRLEEAGIKVHDVRLNGSAFGH gave a protein stability index of 1.25. VRSRLEEAGIKVHDVRLNGSAEGH showed a protein stability index of 2.12. Variant VRSRLEEAGIKVHDVRLNGSACGH has a protein stability index of 1.65. VRSRLEEAGIKVHDVRLNGSAIGH showed a protein stability index of 2.74. For VRSRLEEAGIKVHDVRLNGSAQGH, the protein stability index was 2.1. In the case of VRSRLEEAGIKVHDVRLNGSAAGW, the protein stability index is reported as 3.51. In the case of VRSRLEEAGIKVHDVRLNGSAAGQ, the protein stability index is reported as 2.67. VRSRLEEAGIKVHDVRLNGSAAGD gave a protein stability index of 2.7. For VRSRLEEAGIKVHDVRLNGSAAGI, the protein stability index was 2.01. Variant VRSRLEEAGIKVHDVRLNGSAAGN has a protein stability index of 3.78. Work on VRSRLEEAGIKVHDVRLNGSAAGM yielded a protein stability index of 2.15. In the case of VRSRLEEAGIKVHDVRLNGSAAGE, the protein stability index is reported as 3.66. For VRSRLEEAGIKVHDVRLNGSAAGP, the protein stability index was 2.76. VRSRLEEAGIKVHDVRLNGSAAGS showed a protein stability index of 3.07. In the case of VRSRLEEAGIKVHDVRLNGSAAGA, the protein stability index is reported as 3.06. Work on VRSRLEEAGIKVHDVRLYGSAAGH yielded a protein stability index of 1.62. VRSRLEEAGIKVHDVRLNGSAAEH showed a protein stability index of 2.3. Variant VRSRLEEAGIKVHDVRLNGSAAKH has a protein stability index of 2.25. For VRSRLEEAGIKVHDVRLNGSAAQH, the protein stability index was 1.2. Work on VRSRLEEAGIKVHDVRLNGSAALH yielded a protein stability index of 1.64. Variant VRSRLEEAGIKVHDVRLNGSAANH has a protein stability index of 2.55. Variant VRSRLEEAGIKVHDVRLNGSAADH has a protein stability index of 2.44. In the case of VRSRLEEAGIKVHDVRLNGSAAIH, the protein stability index is reported as 1.6. Work on VRSRLEEAGIKVHDVRLNGSAAYH yielded a protein stability index of 2.18. With VRSRLEEAGIKVHDVRLNGSAAWH the protein stability index was 2.18. Work on VRSRLEEAGIKVHDVRLNGSAAAH yielded a protein stability index of 2.92. VRSRLEEAGIKVHDVRLNGSAARH showed a protein stability index of 2.38. For VRSRLEEAGIKVHDVRLNGSAAFH, the protein stability index was 2.94. VRSRLEEAGIKVHDVRLNGSAATH gave a protein stability index of 3.09. Work on VRSRLEEAGIKVHDVRLNGSAAMH yielded a protein stability index of 1.62. Variant VRSRLEEAGIKVHDVRLNGSAAVH has a protein stability index of 1.82. VRSRLEEAGIKVHDVRLNGSAACH showed a protein stability index of 1.64. For VRSRLEEAGIKVHDVRLNGSAASH, the protein stability index was 2.6. In the case of VRSRLEEAGIKVHDVRLNGSAAHH, the protein stability index is reported as 2.85. In the case of VRSRLEEAGIKVHDVRLNMSAAGH, the protein stability index is reported as 1.83. With VRSRLEEAGIKVHDVRLNPSAAGH the protein stability index was 1.55. VRSRLEEAGIKVHDVRLNESAAGH showed a protein stability index of 3.77. Variant VRSRLEEAGIKVHDVRLNISAAGH has a protein stability index of 3.83. For VRSRLEEAGIKVHDVRLNQSAAGH, the protein stability index was 2.74. VRSRLEEAGIKVHDVRLNVSAAGH showed a protein stability index of 1.79. VRSRLEEAGIKVHDVRLNFSAAGH gave a protein stability index of 2.44. Work on VRSRLEEAGIKVHDVRLNSSAAGH yielded a protein stability index of 2.09. Variant VRSRLEEAGIKVHDVRLNASAAGH has a protein stability index of 2.19. VRSRLEEAGIKVHDVRLNTSAAGH showed a protein stability index of 1.74. Work on VRSRLEEAGIKVHDVRLNDSAAGH yielded a protein stability index of 2.26. VRSRLEEAGIKVHDVRLNRSAAGH gave a protein stability index of 2.22. With VRSRLEEAGIKVHDVRLNLSAAGH the protein stability index was 2.16. Work on VRSRLEEAGIKVHDVRLNHSAAGH yielded a protein stability index of 2.54. VRSRLEEAGIKVHDVRLNGSCAGH showed a protein stability index of 1.73. In the case of VRSRLEEAGIKVHDVRLNGSTAGH, the protein stability index is reported as 2.51. Variant VRSRLEEAGIKVHDVRLNGSPAGH has a protein stability index of 1.8. VRSRLEEAGIKVHDVRLNGSEAGH gave a protein stability index of 2.53. With VRSRLEEAGIKVHDVRLNGSRAGH the protein stability index was 2.83. In the case of VRSRLEEAGIKVHDVRLNGSQAGH, the protein stability index is reported as 1.72. Work on VRSRLEEAGIKVHDVRLNGSIAGH yielded a protein stability index of 2.44. Work on VRSRLEEAGIKVHDVRLNGSWAGH yielded a protein stability index of 1.56. For VRSRLEEAGIKVHDVRLNGSSAGH, the protein stability index was 2.32. VRSRLEEAGIKVHDVRLNGSKAGH gave a protein stability index of 4.25. With VRSRLEEAGIKVHDVRLNGSYAGH the protein stability index was 1.56. Work on VRSRLEEAGIKVHDVRLNGSDAGH yielded a protein stability index of 3.13. Variant VRSRLEEAGIKVHDVRLNGSGAGH has a protein stability index of 3.12. Work on VRSRLEEAGIKVHDVRLNGCAAGH yielded a protein stability index of 2.45. Work on VRSRLEEAGIKVHDVRLNGQAAGH yielded a protein stability index of 2.63. VRSRLEEAGIKVHDVRLNGFAAGH showed a protein stability index of 1.35. Variant VRSRLEEAGIKVHDVRLNGTAAGH has a protein stability index of 1.56. With VRSRLEEAGIKVHDVRLNGHAAGH the protein stability index was 2.16. Variant VRSRLEEAGIKVHDVRLNGVAAGH has a protein stability index of 2.61. VRSRLEEAGIKVHDVRLNGLAAGH showed a protein stability index of 2. Variant VRSRLEEAGIKVHDVRLNGKAAGH has a protein stability index of 2.28. Variant VRSRLEEAGIKVHDVRLNGGAAGH has a protein stability index of 1.94. Variant VRSRLEEAGIKVHDVRLNGNAAGH has a protein stability index of 3.2. VRSRLEEAGIKVHDVRLNGPAAGH gave a protein stability index of 1.95. With VRSRLEEAGIKVHDVRLNGAAAGH the protein stability index was 2.61.
